Measured values as given in patent publication US20260049138A1 (Chugai, published 2026).
Positions count from the first letter of the chain named. Numbers in names are those of the source.

B1: GLS3000 S27aP one-arm antibody (antibody, human IgG1, kappa, L234A L235A, N297A, name in Kabat numbering)
heavy: QVQLVESGGGVVQPGRSLRLSCAASGFTFSNAWMHWVRQAPGKGLEWVAQIKAKSNNYATYYAESVKGRFTISRDDSKNSLYLQMNSLKTEDTAVYYCRYVHYGAYYGVDAWGQGTTVTVSSASTKGPSVFPLAPSSKSTSGGTAALGCLVKDYFPEPVTVSWNSGALTSGVHTFPAVLQSSGLYSLSSVVTVPSSSLGTQTYICNVNHKPSNTKVDKKVEPKSCDKTHTCPPCPAPEAAGGPSVFLFPPKPKDTLMISRTPEVTCVVVDVSHEDPEVKFNWYVDGVEVHNAKTKPREEQYASTYRVVSVLTVLHQDWLNGKEYKCKVSNKALPAPIEKTISKAKGQPREPQVYTLPPSRCELTKNQVSLSCAVKGFYPSDIAVEWESNGQPENNYKTTPPVLDSDGSFFLVSKLTVDKSRWQQGNVFSCSVMHEALHNHYTQKSLSLSPDYKDDDDK
chain: EPKSSDKTHTCPPCPAPELLGGPSVFLFPPKPKDTLMISRTPEVTCVVVDVSHEDPEVKFNWYVDGVEVHNAKTKPREEQYNSTYRVVSVLTVLHQDWLNGKEYKCKVSNKALPAPIEKTISKAKGQPREPQVCTLPPSRDELTKNQVSLWCLVKGFYPSDIAVEWESNGQPENNYKTTPPVLDSDGSFFLYSKLTVDKSRWQQGNVFSCSVMHEALHNRYTQKSLSLSP
light: DIVMTQSPLSLPVTPGEPASISCRSSQPLVHSNRNTYLHWYQQKPGQAPRLLIYKVSNRFSGVPDRFSGSGSGTDFTLKISRVEAEDVGVYYCGQGTQVPYTFGQGTKLEIKRTVAAPSVFIFPPSDEQLKSGTASVVCLLNNFYPREAKVQWKVDNALQSGNSQESVTEQDSKDSTYSLSSTLTLSKADYEKHKVYACEVTHQGLSSPVTKSFNRGEC
B2: GLS3000 S27eY one-arm antibody (antibody, human IgG1, kappa, L234A L235A, N297A, name in Kabat numbering)
heavy: B1 heavy
chain: B1 chain
light: B1 light with P28S, S32Y
B3: GLS3000 S27eV one-arm antibody (antibody, human IgG1, kappa, L234A L235A, N297A, name in Kabat numbering)
heavy: B1 heavy
chain: B1 chain
light: B1 light with P28S, S32V
B4: GLS3000 S27eF one-arm antibody (antibody, human IgG1, kappa, L234A L235A, N297A, name in Kabat numbering)
heavy: B1 heavy
chain: B1 chain
light: B1 light with P28S, S32F
B5: GLS3000 S27aY one-arm antibody (antibody, human IgG1, kappa, L234A L235A, N297A, name in Kabat numbering)
heavy: B1 heavy
chain: B1 chain
light: B1 light with P28Y
B6: GLS3000 S27eK one-arm antibody (antibody, human IgG1, kappa, L234A L235A, N297A, name in Kabat numbering)
heavy: B1 heavy
chain: B1 chain
light: B1 light with P28S, S32K
B7: GLS3000 S27eW one-arm antibody (antibody, human IgG1, kappa, L234A L235A, N297A, name in Kabat numbering)
heavy: B1 heavy
chain: B1 chain
light: B1 light with P28S, S32W
B8: GLS3000 S27eM one-arm antibody (antibody, human IgG1, kappa, L234A L235A, N297A, name in Kabat numbering)
heavy: B1 heavy
chain: B1 chain
light: B1 light with P28S, S32M
B9: GLS3000 S27eQ one-arm antibody (antibody, human IgG1, kappa, L234A L235A, N297A, name in Kabat numbering)
heavy: B1 heavy
chain: B1 chain
light: B1 light with P28S, S32Q
B10: GLS3000 S27eT one-arm antibody (antibody, human IgG1, kappa, L234A L235A, N297A, name in Kabat numbering)
heavy: B1 heavy
chain: B1 chain
light: B1 light with P28S, S32T
B11: GLS3000 S27eN one-arm antibody (antibody, human IgG1, kappa, L234A L235A, N297A, name in Kabat numbering)
heavy: B1 heavy
chain: B1 chain
light: B1 light with P28S, S32N
B12: GLS3000 S52D one-arm antibody (antibody, human IgG1, kappa, L234A L235A, N297A, name in Kabat numbering)
heavy: B1 heavy
chain: B1 chain
light: B1 light with P28S, S57D
B13: GLS3000 S52A one-arm antibody (antibody, human IgG1, kappa, L234A L235A, N297A, name in Kabat numbering)
heavy: B1 heavy
chain: B1 chain
light: B1 light with P28S, S57A
B14: GLS3000 S27eI one-arm antibody (antibody, human IgG1, kappa, L234A L235A, N297A, name in Kabat numbering)
heavy: B1 heavy
chain: B1 chain
light: B1 light with P28S, S32I
B15: GLS3000 S27eP one-arm antibody (antibody, human IgG1, kappa, L234A L235A, N297A, name in Kabat numbering)
heavy: B1 heavy
chain: B1 chain
light: B1 light with P28S, S32P
B16: GLS3000 S27eD one-arm antibody (antibody, human IgG1, kappa, L234A L235A, N297A, name in Kabat numbering)
heavy: B1 heavy
chain: B1 chain
light: B1 light with P28S, S32D
B17: GLS3000 S27eE one-arm antibody (antibody, human IgG1, kappa, L234A L235A, N297A, name in Kabat numbering)
heavy: B1 heavy
chain: B1 chain
light: B1 light with P28S, S32E
B18: GLS3000 S27eH one-arm antibody (antibody, human IgG1, kappa, L234A L235A, N297A, name in Kabat numbering)
heavy: B1 heavy
chain: B1 chain
light: B1 light with P28S, S32H
B19: GLS3000 S27eA one-arm antibody (antibody, human IgG1, kappa, L234A L235A, N297A, name in Kabat numbering)
heavy: B1 heavy
chain: B1 chain
light: B1 light with P28S, S32A
B20: GLS3000 S27eR one-arm antibody (antibody, human IgG1, kappa, L234A L235A, N297A, name in Kabat numbering)
heavy: B1 heavy
chain: B1 chain
light: B1 light with P28S, S32R
B21: GLS3000 S27eL one-arm antibody (antibody, human IgG1, kappa, L234A L235A, N297A, name in Kabat numbering)
heavy: B1 heavy
chain: B1 chain
light: B1 light with P28S, S32L
B22: GLS3000 S27eG one-arm antibody (antibody, human IgG1, kappa, L234A L235A, N297A, name in Kabat numbering)
heavy: B1 heavy
chain: B1 chain
light: B1 light with P28S, S32G

The binders below were run against T1, CD3ε homodimer protein (human, UniProt P07766 23-126, limits assumed) (assay: SPR Biacore T200, CD3ε homodimer on chip;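 note: Light-chain single-residue variant antibodies injected over amine-coupled CD3ε homodimer on a CM4 chip at 25 °C, bound amount divided by that of the GLS3000-containing antibody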).
T1 construct: also called CD3 (CD3ε)
T1 sequence (P07766 23-126 limits assumed): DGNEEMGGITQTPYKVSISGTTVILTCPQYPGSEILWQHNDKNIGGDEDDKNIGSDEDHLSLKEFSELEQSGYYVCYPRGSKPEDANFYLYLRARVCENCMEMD

Row | ratio of amount bound vs unaltered GLS3000 | Binder
1 | 0.99 | B1
2 | 1.2 | B2
3 | 1.08 | B3
4 | 1.32 | B4
5 | 1.1 | B5
6 | 1.59 | B6
7 | 1.55 | B7
8 | 1.23 | B8
9 | 1.1 | B9
10 | 0.97 | B10
11 | 1.16 | B11
12 | 0.63 | B12
13 | 0.93 | B13
14 | 1.07 | B14
15 | 1.26 | B15
16 | 0.69 | B16
17 | 0.76 | B17
18 | 1.23 | B18
19 | 1.03 | B19
20 | 1.58 | B20
21 | 1.17 | B21
22 | 1.04 | B22
